Data published in paper PMC3941051.

Target: His-FLAG-Arp5 (not stated (human or rat cDNA cloned)) (UniProt Q9H9F9)
Assay: cross-linking

UniProt Q9H9F9, sequence (Q9H9F9 whole entry): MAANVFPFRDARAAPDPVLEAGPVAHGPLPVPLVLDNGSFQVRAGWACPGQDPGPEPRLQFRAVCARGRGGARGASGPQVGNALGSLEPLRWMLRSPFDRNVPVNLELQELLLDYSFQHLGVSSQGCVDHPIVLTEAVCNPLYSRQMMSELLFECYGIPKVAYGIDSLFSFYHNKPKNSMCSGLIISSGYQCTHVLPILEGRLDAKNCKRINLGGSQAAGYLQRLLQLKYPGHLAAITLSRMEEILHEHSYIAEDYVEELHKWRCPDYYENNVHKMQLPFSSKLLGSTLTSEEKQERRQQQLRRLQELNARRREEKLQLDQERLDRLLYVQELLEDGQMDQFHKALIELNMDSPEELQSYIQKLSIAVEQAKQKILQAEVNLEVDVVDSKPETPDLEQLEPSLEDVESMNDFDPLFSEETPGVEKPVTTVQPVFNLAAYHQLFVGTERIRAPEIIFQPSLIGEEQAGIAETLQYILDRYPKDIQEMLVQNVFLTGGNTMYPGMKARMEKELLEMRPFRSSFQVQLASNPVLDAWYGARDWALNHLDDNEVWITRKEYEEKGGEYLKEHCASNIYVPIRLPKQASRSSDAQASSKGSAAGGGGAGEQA

Work on “GFP-fused 32-amino acid Myocd RPEL1 motif peptide (RPEL1-GFP)” yielded a stoichiometry N of 1.
